Laboratory results taken from the nanobody polyreactivity screen of Harvey et al. (2022).

Experiment: yeast display, Sf9 membrane polyspecificity reagent, FACS + sequencing; frameworks hold sequencing errors
In short: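 Nanobodies came from a synthetic yeast display library in Saccharomyces cerevisiae BJ5465, induced with galactose for 36–48 hours and stained for 1 hour at 4 °C with 10% biotinylated, detergent-solubilized Sf9 membrane reagent. Cells were enriched on streptavidin microbeads and then FACS-sorted, with low and high (top ~1%) gates set on anti-HA fluorescence for expression and streptavidin fluorescence for reagent binding. Each polyreactivity label reflects the gate a clone came from. Genes were amplified by colony PCR, sequenced by MiSeq 2 × 250 and filtered by CDR length.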

Row | Sequence | polyreactivity (PSR sort gate)
1 | QVQLVESGGGLVQAGGSLRLICAASGSTFKRYAMGWYRPAPGNERELVAAISSTGGSTFYADSVKGRFTISRDIAKYTVYLQMNSLKREDTAVYYCKKYRATNSARDYWGQGTQVTVSS | high polyreactivity
2 | QVQLVESGGCLVQAGGSLRLSCAASGFTFGPYDMGWYRQAPGKERELVAVIIGGDSTNYADSVKGRFTISRDNAKNTVYLQLNSLKPEVTAVYYCAADYIDRVGWMDYWGQGTQVTVSS | low polyreactivity
3 | QVQLVESGGGLVQAGGSLRLSCAASGRIFRYYAMGWYRQAAGKERELVAAISYSGGRTYYADSVKGRFTISRDNAKNTVYVQMNSLKPEDTAVYYCASVWHSQSSYVPFDSWGQGTQVTVSS | high polyreactivity
4 | QVQLVESGGGLVQAGGSLRLSCAASGFTIIYYAMGWYRQAPGKERELVAAITDSGGSTYYADSVKGRFTISRDNAKNTVYLQMNSLKPEDTAVYYCAARLTCSRFYYWGQGTQVTVSS | high polyreactivity
5 | EVQLEESGGGLVQAGGSLRLSCAASGSTFYQYALGWSRQAPGKERELVAAITTIGGRTYYADSVKGRFTISRDNAKNTVYLQMNSLNPEDTAVYYCAAGYRAWEPYGHYGYWGQGTQVTVSS | high polyreactivity
6 | QVQLVESGGGLVQAGGSLRLSCAASGIIFTYYAMGWYRQAPGKERELVADIDWSGDGTYYADSVKGRFTISRDNAKNTVYLQMNSLKPEDTAVYYCAAEGTETYYVFYDQPEITLYDYWGQGTQVTVSS | low polyreactivity
7 | QVQLVESGGGLVQAGGSLRLSCAASGRILAGYAMGWYRQAPGKERELVAAITRGGTTYYADSVKGRFTISRDNAKNSVYLQMNSLKPEDTAVVYTVSSAQYDYCGQGTQVTVSS | low polyreactivity
8 | QVQLVESGGGLVQAGGSLRLSCAASGRIFRWNAMGWYRQAPGKERDLVAAISWRGANTYYADSVKGRFTISRDNAKNTVYLQMNSLKPEDTAVYYCARYSYRGSQSDSWGQGTQVTVSS | high polyreactivity
9 | QVQLVESGGGLVQAGGRLRLSCAASGRTLGANAMGWYRQAPGKERELVAAITDSGGSTYYADSVKGRFTISRDNAKNTVYLQMNSLKPEDTAVYYCAAKQAYSSTYVWPIFDYWGQGTQVTVSS | low polyreactivity
10 | QVQLVESGGGLVQAGGSLRLSCAASGRTSSTYDMGWYRLAPGKERELVADITWYGGSTYYADSVKGRFTISRDNAKNTVYLQMNSLIPEDTAVYYCAAERKDGGYGYGFYWGVVGLDYWGQGTQVTVSS | low polyreactivity
11 | QVQLVESGGGLVQAGGSLRLSCAASGLTFDYYAMGWYRQAPGKERELVAAISASCSSTYYADSVKGRFTISRDNAKNTVYLQMNSLKPEDTAVYYCAAVTKSSVPGSRYDYWGQGTQVTVSS | high polyreactivity
12 | QVQLVESGGGLVQAGGRLRLSCAASGFTFRYYAMGWSRQAPGKERELVAGISYRGTSTYYADSVKGRFTISRDNAKNTVYLQMNSLKPEDTAVYYCADEVRYDRHDYWGQGTQVTVSS | high polyreactivity
13 | QVQLVESGGGLVQAGGSLRLSCAASGRTFGVYAMGWYRQAPGKERELVAAIRWSGGGTYYADSVKGRFTISRDNAKNTVYLQMNSLKPEDTAVYYCNAEIWTEGGYWGQGTQVTVSS | low polyreactivity
14 | QVQLVESGGGLVQAGGSLRLSCAASGSIFTPYTMGWYRQAPGKERELVAAITGSAGSTYYADSVKGRFTISRDNAKNTVYLQMNSLKPEDTAVYYCAAAVWGVYQWYYYWGQGTQVTVSS | high polyreactivity
15 | QVQLVESGGGLVQAGGSLRLSCAASGRTFRANAMGWSRQAPGKERELVAAITWDGGSTYYADSVKGRFTISRDNAKNTVYLQMNSLKPEDTAVYYCNTYPYLWGQGTQVTVSS | low polyreactivity
16 | QVQLVESGGGLVQAGGSLRLSCAASGITFYYYTMGWYRQAPGKERELVAGITYRGGRTYYADSVKGRFTISRDNAKNTVYLQMNSLKPEDTAVYYCAADDLGWWFYSGGEDYYYWGQGTQVTVSS | low polyreactivity
17 | QVQLVESGGGLVQAGGSLRLSCAASGRTFAYYAMGWYRQAPGTERELVAAISYSGARTYYADSVKGRFTISRDNAKNTVYLQMNSLKPEDTAVYYCAKSRGYPYTDYNYWGQGTQVTVSS | high polyreactivity
18 | QVQLVETGGGLVQAGGSLRLSCAASGITFASYDMGWYRQAPGKEWELVAAISSGGDTTYADSVKGRFTLSRDNAKNTVSLQMNSLKPEDTAVYYCNKDIDFAVSAYESSPRTMYYWGQGTQVTVSS | low polyreactivity
19 | QVQLVESGGGLVQAGGSLRLSCAASGIIFSWYAMGWYRQAPGKERELVASITASGGSTYYADSVKGRFTISRDNAKNTVYLQMNSLKPEDTAVYYCAVRYGHRSFASVYVEYEYWGQGTQVTVSS | low polyreactivity
20 | QVQLVESGGGLVQTGGSLRLSCAASGRIFRSYAMGWYRPAPGKERELVAAISGSGGSTYYADSVKGRFTISRDNAKNTVYVQMNSLKPEDTAVYYCNACKVHPFSTRFYYWGQGTQVTVSS | low polyreactivity
21 | QVQLVESGGGLVQAGGSLRLSCAASGSTFISNAMGWYRQAPGKERELVAAITRRGGGTYYADSVKGRFTISRDNAMNTVYLQMNSLKPEDTAVYYCAARPWWRGYRFDYWGQGTQVTVSS | high polyreactivity
22 | QVQLLESGGGLVQARGSLRLSCAASGSIFTYYAMGWYRQAPGIEREFVAAISRRGGSTYYADSVKGRFTISRDNAKNTVYLQMNSLKAVDTAVYYCAKDPSFTRGYKEGGGYDYWGQGTQVTVSS | high polyreactivity

Row | Sequence | polyreactivity (PSR sort gate)
23 | QVQLVESGGGLVQAGGSLRLSCAASGRTFQYYVMGWYRQAPGKERELVAAITSAGSTNYADSVKGRFTISRDNAKNTVYLQMNSLKPEDTAVYYCNADLWVNLHNDDDYWGQGTQVTVSS | low polyreactivity
24 | QVQLVESGGGLVQAGGSLRLSCAASGSTFFRYAMGWYRQAPGKERELVAAITSSGGRTYYADSVKGRFTISRDNAKNTVYLQMNSLKPEDTAVYYCADASGTSPYDYWGQGTQVTVSS | high polyreactivity
25 | QVQLVDSGGGLVQAGGSISLSCAASGRTFFVNAMGWYRQAPGKERELVAAITRRGGITYYADSVKGRFTISRDNAKNTVYLQMNSLKPEDTAVYYCAADRSYYPDTRTTYGYNYWGQGTQVTVSS | low polyreactivity
26 | QFQLVESGGGLDQAGGSLRLSCAASGFTLNRNAMGWYRQAPGKETELVAAITRGGRTYYADSVKGRFTISRDNAKNTVYLQMNSLKPEDTAVYYCARTVGYRTLLESDSWGQGTQVTVSS | high polyreactivity
27 | QVQLVESGGGLVQAGGSLRLSCAASGSIFKYNTMGWYIQAPGKERELVATISGGGRTYYADSVKGRFTISRDNAKNTVYLQMNSLKPEDTAVYYCAARKRGTFTYDYWGQGTQVTVSS | high polyreactivity
28 | QVQLVESGGGLVQAGGSLRLSCAASGRTLYYYAMGWYRQAPGKERELVAAITRSGGSTYYADSVKGRFTISRDNAKNTVYLQMISLKPEDTEVYYFNKYGYKGGLGYDYWGQGTQVTVSS | high polyreactivity
29 | QVQLVESGGGLVQAGGSLRLSCAASGFIFGHYAMGWYRQAPGKERELVATISSGGSTKYADSVKGRFTISRDNAKNTVYLQMNSLKPEDTAVYYCAKKLWYLYHHYDYWGQGTQVTVSS | low polyreactivity
30 | QVQLVESGGGLVQAGGSLRLTCADSGSILYINAMGRYIQAPGKEREWVAAITYSGGSTYYADSVKGRFTISRDNAKNTVYLQMNSLKPEDTAVYYCAADAVVAGRYDGHDYWGQGTQVTVSS | low polyreactivity
31 | QVQLVESGGGLVQAGGSLRLSCAASGLTFKFYDMGWYRQAPVKEREFVAGITSSGGTTYYADSVKGRFTISRDNAKNTVYLQMNSLKPEVTAVYYCAAADIDDGPFDSWGQGTQVNVSS | low polyreactivity
32 | QVQLVESGGGLVQAGGSLRLSCAASGITFQGYTIGWYRQAPGKERELVAAISSNGGRTYYADSVKGRFTISRDNAKNTVYLQMNSLKPEDTAVYYCAARKWRLIVDYWGQGTQVTVSS | high polyreactivity
33 | QVQHVESGGGLVQAGGSLRLSSAASGRTFGIYAMGWSRQAPGKERELVATISWRGGSTYYADSLKGRFTISRDNSKNTVYLQMNSLKPEDTAVDYCAAGYYPYWGQGTQVTVSS | low polyreactivity
34 | QVQLVESGGGLVHAGGSLRLSCAASGFTFYKNAMGWYRQAPGKERELVAAISADGGRTYYADSVKGRFTISRDNAKNTVYLQMNSLKPEDTGVYYCNARARRYTRLRWYAYVSDNDYWGQGTQVTVSS | high polyreactivity
35 | QVQLVESGGGLVQAGGSLRLSCAATGSTFARYAMGWSRQAPGKERELVAAISRRGGSTYYADSVTGRFTLSRDNAKNTVYLQMNSLNQEDTAVDSCAARYGIISSFEYDYWGQGTQVTVSS | high polyreactivity
36 | QVQLVESGGGLVQAGGSLRLSCAASGRTFYRYAMGWYRQAPGKEREFVAAISGSGGRTYYADSVKGRFTISRDNAKNTVYLQMNSLKPEDTAVYYCNAYPHAYTGSTREGDYWGQGTQVTVSS | high polyreactivity
37 | QVQLVESGGGLVQAGGSLRLSCAAYGRIFRYYAMGWYRQAPGKERELVVAISRSGSSTYYADSVKGRFTISRDNAKNTVYLQMNSLKPEDTAFYYCAAKLADQTRGTTSDSWGQGTQVTVSS | high polyreactivity
38 | QVQHVESGGGLVQAGGSLRLSCAASVSIFSPNDMGCYRQAPGKERELVAAITSAGSTYYADSVKGRFTISRDNAKNSVYLQMNSLKPEDTAVYYCAASYISVTDYAYFPLWYGYWGQGTQVTVSS | low polyreactivity
39 | QVQLVESGGGLVQAGGSLRLSCAASGSIFRLYAMGWYRQAPGKERELVAAITWRSGSTYYADSVKGRFTISRDNAKNTVYLQMNSLKPEDTAVYYCAADSLYRLYNYWGQGTQVTVSS | high polyreactivity
40 | QVQLVESGGGLVQAGGSLRLSCAASGRIFTGYAMGWYRQAPGKERELVAAISRGGSTNYADSVKGRFTISRDNAKNSVYLQMNSLKPEDTAVYYCAAGVHWDRGDYWGQGTQVTVSS | low polyreactivity
41 | QVQLVESGGGLVQAGGILRLSCAASGSTLGFNAMGWYRLAPGKEREFDAGISASGSSTYYADSVKGRFTISRDNAKNTVYLQMNSLKPEDTAVYYCYAPRGSRRSYRRTEFYYWGQGTQVTVSS | high polyreactivity
42 | QVQLVESGGGLVQAGGSLRLSCAASGSIFRVYAMGWYRQAPGKERELVARISRTGVSTYYADSVKGRFTISRDNAKNTVYLQMNSLKPEDTAVYYCAVLIPYSSRSYRSTWYGYWGQGTQVTVSS | high polyreactivity
43 | QVQLVESGGGLVQAGGSLRLSCAASGGIFRYYALGWYRPAPGKERELVAASSRSGDSTYYADSVKGRFTISRDNAKNTVYLQMNSLKPEDTAVYYCAKDNDDVHLVHLDYNSDRYGYWGPGTQVTVSS | high polyreactivity
